“Also recorded” adds a separate entry of the source. Square brackets hold non-standard residues; d marks the D form. Peptide text beside a SMILES is read from it. Lys(N3) = [N-]=[N+]=NCCCC[C@H](N)C(=O)O
Experiments:
[1] = UV-Vis self-aggregation of the conjugates; format: physicochemical; details: UV-Vis 300–650 nm, 5 μM, 10 mM phosphate buffer pH 7.4, room temperature, 0–120 h
Method: We first studied the effects of peptide conjugation on the porphyrin chromophore, by UV‐Vis spectra in the region between 300–650 nm. The spectra were recorded using a solution of 5 μM Porphyrin‐peptide conjugate in 10 mM phosphate buffer pH 7.4. The UV‐Vis profile of the porphyrin precursor MCPTPyP, recorded at the same concentration, is also shown for the sake of comparison (Figure 1).
(§1) Peptide conjugation influences the spectral features of the porphyrin chromophore as evidenced by the red shift in the absorption maximum in the region of the Soret band region. The Q bands are also affected, particularly in the Cu‐Ph‐Pep and Zn‐Ph‐Pep compounds (Figure 1). In this case the presence of a metal ion within the porphyrin's core might contribute to the observed spectral profile of these compounds. […] The fluorescence spectra of the investigated systems were also acquired in view of the interaction of the studied conjugates with cells (see below biological section).[41] The fluorescence spectra were recorded with the photoexcitation at 425±5 nm, in 10 mM phosphate buffer pH 7.4 and 5 μM concentration. The emission spectrum of the porphyrin precursor MCPTPyP ( Ph ) was also obtained for the sake of comparison.
(§2) Spectra were recorded on a Jasco V‐670 Spectrophotometer at room temperature. All measurements were performed in the 300–650 nm wavelength region, in a 10 mM phosphate buffer solution at pH 7.4 using a 1 cm path length quartz cell. The spectra of all the peptide‐porphyrin conjugates, either in the absence or in the presence of equimolar Aβ42, were acquired at 5 μM. In some cases, the same sample solution was used to run the CD spectra. The final concentrations of Aβ42 and peptide conjugates were 5 μM (1 : 1 molar ratio).

[2] = Porphyrin fluorescence in buffer; format: physicochemical; details: 5 μM, 10 mM phosphate buffer pH 7.4, excitation 425 nm; vs pristine MCPTPyP
From the text: as §1
Spectra were recorded on a Horiba Fluoro‐max‐4 spectrofluorometer from 440–800 nm in 1 nm steps, at an excitation wavelength λexc=425 nm, at room temperature. The final fluorescence spectra represent averages of at least three measurements. Bandwidths of 5 nm for both excitation and emission were used. The sample of the compound used to record absorption spectra were the same as those for the CD spectra.

Aβ42 [3] = target: T1, Aβ42 (Homo sapiens, UniProt P05067); test: Grating-Coupled Interferometry (GCI) binding to immobilized Aβ42; details: GCI fit quality parameter
Method: The Grating‐Coupled Interferometry (GCI) is a widely used analytical technique for characterizing intermolecular interactions. It allows quantitative measurements of both the affinity and the kinetics of the binding events. This high sensitivity label‐free method was exploited to measure the interactions of Aβ42 with Cu‐Ph‐Pep , Ph‐Pep , and Zn‐Ph‐Pep (Figure 5S). Control experiments with pristine MCPTPyP and the peptide GPGKLVFF ( Pep ) were carried out for comparison. The calculated association and dissociation kinetic constants (kon and koff, respectively) and the thermodynamic binding constant (KD), are summarized in Table 1. The obtained values indicate that all the conjugates show good affinities with Aβ42. It is also clear from Table 1 that the peptide moiety is fundamental for the molecular recognition of the Aβ42 peptide.[48] […] Nevertheless, it is important to emphasize that the interaction with Aβ42 is primarily mediated by the peptide rather than by the porphyrin macrocycle. We next investigated whether these peptide derivatives could be employed as molecular probes for the detection of Aβ42 aggregated species. A new set of CD experiments was then carried out with Aβ42 at 20 μM both in the absence and in the presence of the porphyrin‐peptide conjugates at 1 : 1 molar ratio in the UV (195–350) and Visible (350–500) regions. […] The signal rapidly evolved toward the typical β‐sheet profile (already within 24 h) with a single minimum at 216 nm, an x‐axis intercept at 202 nm and a maximum shift at a wavelength 195 nm.[49] […] For the sake of comparison, the CD spectra of the porphyrin‐peptide conjugates at 20 μM were also recorded in the same experimental conditions, both in the far‐UV and Visible regions (Figure 6S).
The experiments were performed on a Creoptix WAVE system (Creoptix). Borate buffer (100 mM sodium borate pH 9.0, 1 M NaCl) was used for chip conditioning. Aβ42 peptide (20 μg/ml in Na Acetate pH 4.5) was immobilized on 4PCH WAVE chips (quasiplanar polycarboxylate surface; Creoptix) according to the manufacturer instructions at a final density of 1910±40 pg/mm^2. Single‐cycle sequential injections of dilution series for each Porphyrin‐Peptide conjugates in running buffer (PBS, 0.005 % Tween 20, 1 % DMSO, 0.2 mg/ml BSA) were performed at 25 °C, using a flow rate of 100 μl/min. In details, for the conjugate Cu‐Ph‐Pep , 1 : 2 dilution series starting from 200 μM were injected for 10 s association time, 45 s dissociation time, followed by a dissociation time of 600 s for the last higher concentration injection. Finally, for the conjugates Ph‐Pep and Zn‐Ph‐Pep , 1 : 2 dilution series starting from 50 μM and 100 uM, respectively, were injected for 30 s association time, 45 s dissociation time, followed by a dissociation time of 600 s for the last higher concentration injection. Blank injections were used for double referencing and a DMSO calibration curve for bulk correction. Analysis and correction of the obtained data were performed using the Creoptix WAVE control software (correction applied: X and Y offset; DMSO calibration; double referencing). Mass transport binding models with bulk correction were used to fit all experiments. All the experiments have been performed at least in triplicate.
Figure 5S. Quantitative binding kinetics of Aβ42 vs a) MCPTPyP; b) Cu-Ph-Pep; c) Ph-Pep; d) Zn-Ph-Pep; and e) Pep measured by GCI. All curves were blank subtracted. Experiments were performed in triplicate. All the quality assessments (i.e., χ2 shown in Table 1 of the main text , parameter errors, and residual plots were acceptable; the sensorgrams had sufficient curvatures an d the kinetic constant k off were within the measurable range) were fulfilled. Descriptive Statistical Analysis was employed to calculate the mean of the obtained values of k on, koff and KD as a measure of central tendency and standard deviations of the former values were computed as a measure of dispersion.
Figure 6S. […]

Aβ42 [4] = target: T1, Aβ42; test: UV-Vis of conjugates with equimolar Aβ42; format: biochemical; details: 5 μM conjugate, equimolar Aβ42, 10 mM phosphate buffer pH 7.4, 0, 24, 48 and 120 h
Method: (§3) The UV‐Vis spectra of porphyrin‐peptide conjugates (5 μM) were recorded in the presence of an equimolar ration of Aβ42 monomers at 0, 24, 48 and 120 h (Figure 2S). […] Therefore, the interaction of the peptide‐porphyrin conjugates with Aβ was further studied using CD spectroscopy. The Aβ42 aggregation process was monitored either in the absence or in the presence of an equimolar amount of the conjugated peptides. A series of CD control experiments were preventively carried out to assess the propensity of the porphyrin‐peptide conjugates to adopt a β‐sheet conformation. The corresponding CD curves are shown in the supplementary material (Figure 3S). […] We then evaluated the ability of the porphyrin‐peptide conjugates to affect the Aβ42’s aggregation process. This was accomplished by running a series of CD experiments on the binary systems in the same experimental conditions as the control CD measurements. A 5 μM Aβ42 sample was used as a positive control of the aggregation process (Figure 3, panel a). In this case, the curve profiles indicate that at 0 h, Aβ42 is predominantly in the random coil conformation, as evidenced by the negative ellipticity around 200 nm. […] The typical dichroic profile characterized by a negative ellipticity at λ=222 nm and a positive band at λ=200 is indicative of this event (Figure 3, panel a).
as §2

[5] = CD control: β-sheet propensity of the conjugates alone; format: physicochemical; details: 10 mM phosphate buffer pH 7.4, room temperature, up to 120 h
Method: as §3
Spectra were recorded on a J‐810 spectrometer (Jasco, Japan) under a constant flow of N2 at room temperature. The CD measurements were performed in the wavelength regions (190–260 nm, 195–350 nm and 350–500 nm) using a 1 cm path length quartz cell. All aggregation kinetics were monitored up to 120 hours. The CD spectra were recorded for Aβ42 (5 μM and 20 μM) monomer in the absence or in the presence of porphyrin‐peptide conjugates (5 μM and 20 μM for the 1 : 1 molar ratios). Monomerized samples of Aβ42 (5 μM and 20 μM) were solubilized in 50 μL of NaOH 20 mM (2,5 %) and after were diluted with 1950 μL of 10 mM phosphate buffer at pH 7.4 pure or containing the solubilized conjugates.

full-length Aβ = details: ref [44], [45]; cited from earlier work
From the text: In the present work we employed UV‐Vis, CD spectroscopy and Bis‐Ans fluorescence to explore the molecular processes underlying the interactions occurring between Aβ and the porphyrin‐peptide conjugates.

T1 sequence (P05067 672-713 limits assumed): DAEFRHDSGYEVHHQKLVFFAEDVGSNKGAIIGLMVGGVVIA

Question: With `COC(=O)[C@H](Cc1cn(CCCC[C@H](NC(=O)CNC(C)=O)C(=O)N2CCC[C@H]2C(=O)NCC(=O)N[C@@H](CCCCN)C(=O)N[C@@H](CC(C)C)C(=O)N[C@H](C(=O)N[C@@H](Cc2ccccc2)C(=O)N[C@@H](Cc2ccccc2)C(N)=O)C(C)C)nn1)NC(=O)c1ccc(-c2c3nc(c(-c4cc[n+](C)cc4)c4ccc([nH]4)c(-c4cc[n+](C)cc4)c4nc(c(-c5cc[n+](C)cc5)c5ccc2[nH]5)C=C4)C=C3)cc1` [Cu‐Ph‐Pep] as the compound, how does the self-aggregation [1] read?
Answer: Its self-aggregation is “absence of significant self‐aggregation phenomena”.

Question: What about the fluorescence emission intensity [2] of the same compound?
Answer: Its fluorescence emission intensity is “not fluorescent”.

Question: What about the “χ^2 (average of the squared residuals, fitting confidence)” value (Aβ42 [3]) of the same compound?
Answer: Its value is 0.76±0.07.

Question: What about the “UV-Vis spectral change in presence of Aβ42” value (Aβ42 [4]) of the same compound?
Answer: The value was “minor variations in the spectral profiles; also recorded: observable absorbance diminution”.

Question: And the “propensity to adopt β-sheet conformation (conjugate alone)” value [5]?
Answer: Its value is “can fairly adopt β‐sheet conformation over time”.

Question: For `CC(=O)NCC(=O)N[C@@H](CCCCN=[N+]=[N-])C(=O)N1CCC[C@H]1C(=O)NCC(=O)N[C@@H](CCCCN)C(=O)N[C@@H](CC(C)C)C(=O)N[C@H](C(=O)N[C@@H](Cc1ccccc1)C(=O)N[C@@H](Cc1ccccc1)C(N)=O)C(C)C` [Pep] (Ac-G[Lys(N3)]PGKLVFF-NH2), which “χ^2 (average of the squared residuals, fitting confidence)” value (Aβ42 [3]) is on record?
Answer: Its value is 0.79±0.08.

Question: With `COC(=O)[C@H](Cc1cn(CCCC[C@H](NC(=O)CNC(C)=O)C(=O)N2CCC[C@H]2C(=O)NCC(=O)N[C@@H](CCCCN)C(=O)N[C@@H](CC(C)C)C(=O)N[C@H](C(=O)N[C@@H](Cc2ccccc2)C(=O)N[C@@H](Cc2ccccc2)C(N)=O)C(C)C)nn1)NC(=O)c1ccc(-c2c3nc(c(-c4cc[n+](C)cc4)c4ccc([nH]4)c(-c4cc[n+](C)cc4)c4nc(c(-c5cc[n+](C)cc5)c5ccc2[nH]5)C=C4)C=C3)cc1` [Ph‐Pep] as the compound, how does the self-aggregation [1] read?
Answer: Its self-aggregation is “absence of significant self‐aggregation phenomena”.

Question: What about the fluorescence emission intensity [2] of the same compound?
Answer: The fluorescence emission intensity was “somewhat decreased”.

Question: And the “χ^2 (average of the squared residuals, fitting confidence)” value (Aβ42 [3])?
Answer: Its value is 0.71±0.04.

Question: What about the “UV-Vis spectral change in presence of Aβ42” value (Aβ42 [4]) of the same compound?
Answer: The value was “minor variations in the spectral profiles”.

Question: And the “propensity to adopt β-sheet conformation (conjugate alone)” value [5]?
Answer: Its value is “can fairly adopt β‐sheet conformation over time”.

Question: For “KLVFF [well-known hydrophobic core Aβ16–20 (KLVFF)]”, which “recognition of full-length Aβ” value (full-length Aβ) is on record?
Answer: Its value is “can recognize and co‐assemble with full‐length Aβ”.

Reference: article PMC11610669, “A Spectroscopic Study on the Amyloid‐β Interaction with Clicked Peptide‐Porphyrin Conjugates: a Vision Toward the Detection of Aβ Peptides in Aqueous Solution” (Chembiochem, 2024)
